Measured values reported in patent publication US10849966B2, “Methods for treating netosis and neutrophil activation” (TRUSTEES OF BOSTON UNIVERSITY, priority 2017, dated 2020).
Read-outs that look alike come from different tables or passages of the source.

T1: DEspR on intact human cells (Homo sapiens, UniProt B0L3A2)
T1 construct: endogenous in cells; host or cells: intact human cells / 'DEspR+ human cells'
T1 sequence (B0L3A2 1-85): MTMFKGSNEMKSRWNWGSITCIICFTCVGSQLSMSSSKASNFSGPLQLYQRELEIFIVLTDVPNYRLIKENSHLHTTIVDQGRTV


Assays:
[1] = test system: pancreatic peritoneal metastatic tumors; assay: combination anti-DEspR mAb and gemcitabine in rats with pancreatic peritoneal metastatic tumors; format: in vivo; settings: per rat
Protocol: FIG. 36 depicts representative images of tumor treated rats with combination anti-DEspR mAb and gemcitabine vs gemcitabine alone, and mock-treated saline controls. GEM tx: gemcitabine treatment (100 mg/kg/dose iv×2). Hu-6g8 or ABTM-468: humanized anti-DEspR mAb treatment 1 mg/kg/dose iv×1/week×2. Combo-tx: combination therapy. Saline mock Tx: mock.
The observations of anti-DEspR/gemcitabine synergy supports the potential of anti-DEspR mAb therapy to be a compelling partner for combination with checkpoint inhibitors. […] The paradigm of unique combinatorial synergy was further tested in vivo. […] Moreover, there was no ascites in ComboTx-rats. Gut distention from gut-dysfunction is also evident in saline mock-treated (Tx) control. (FIG. 36).
Importantly, metastasis to the liver and retroperitoneal space, and ascites were all prevented/inhibited by ComboTx.

[2] = test system: LPS-induced hemorrhagic encephalopathy in stroke prone rats; assay: LPS-induced hemorrhagic encephalopathy / multi-organ failure rat model; format: in vivo
From the text: FIG. 3A) control rat brain after PBS-buffer perfusion to eliminate intravascular blood.
FIG. 4 depicts a survival curve analysis of anti-DEspR treated rats compared with non-treated rats in a rat model of LPS-induced multi-organ failure manifesting predominantly as hemorrhagic encephalopathy (phenotype corroborated in FIG. 3A-3F).
Neutrophil-mediated tissue injury has been implicated in blood brain barrier disruption or injury.
The murine precursor anti-DEspR antibody, 6g8-mumab, was studied in a rat model of LPS-induced hemorrhagic encephalopathy as a paradigm of multi-organ failure (MOF) in ARDS and sepsis (FIG. 3A-3F).
It was also determined whether anti-DEspR can increase survival of rats in a LPS-induced hemorrhagic encephalopathy MOF rat model.

activated neutrophils = assay: dose-response survival assay of activated neutrophils (Trypan blue dye exclusion); format: cell-based; settings: for IC50: live cells counted by Trypan blue dye exclusion, read-out: IC50, inhibition of activated neutrophil survival
From the text: FIG. 6 depicts a graph comparison of functional activity of anti-DEspR fully humanized 6g8 mAb, 6g8-humab, and prototype murine anti-DEspR 6g8 mAb, 6g8-mumab.
(§1) FIGS. 17A-17C depict anti-DEspR-mab (hu6g8 mab). FIG. 17A depicts a diagram of DEspR, murine precursor mabs and humanized IgG and IgG4 mabs. Hu6g8 is notated as 6g8g7-hu-IgG4 raised against epitope 2, spanning the putative binding domain.
Described herein are the advantages of anti-DEspR mAb targeted AECs. DEspR, the dual endothelin1/signal peptide receptor,^9 is a validated target on human activated neutrophils and NETs. Hu6g8 binds human activated neutrophils (FIG. 18A) and NETs (FIG. 18B), as confirmed by Western Blot analysis of DEspR protein in human kidney (K), and activated neutrophil samples, act-Ns (FIG. 18C). Humanized anti-DEspR-mab (hu6g8 mab) is an ideal targeting moiety. Hu6g8 is the multi-species Human/NHPrimate/Rat reactive humanized-deimmunized anti-DEspR-mab with a hinge-stabilized IgG4S228P/kappa Fc region (FIG. 17A) to avoid (ADCC-antibody dependent cell-mediated cytotoxicity, CDC-complement dependent cytotoxicity), and to eliminate loss of targeting upon Fab arm exchange typical of native IgG4 isotype. […] Through recombinant DNA technology, the antibody design incorporates: a) avoidance of T-cell epitopes for low immunogenicity; b) optimization of heavy and light chain interactions for stability of variable domains; and, c) exclusion of destabilizing post-translational modification sites [e.g., deamidation, oxidation]. The targeting of DEspR^+ NETs, but sparing of DEspR(−) quiescent neutrophils via the anti-DEspR mAb is also novel. […] The use of human neutrophil-elastase cleavable linker is advantageous as this connector-peptide can be added by recombinant technology and HNE is enriched on NETs and actually a reason for the injurious properties of NETs. HNE is desirable for local therapeutic delivery [Owen C A, Campbell E J. J Leukocyte Biol 1999, 65 (2) 137-150], has specificity for small uncharged amino acids particularly alanine (A) and valine (V) [Meers P. Adv Drug Delivery Rev. 2001. 53 (3) 265-272]. […] The advantages of all three in an AEC is novel and robust as the targeted delivery and release of DNAse 1 on NETs can attain in vivo efficacy of what has been shown in vitro, the induction of macrophage uptake-and-clearance of NETs upon DNAse 1 digest of NETs DNA. In summary, targeting the intravascular NETs sites. The humanized anti-DEspR-mab with a hinge-stabilized IgG4/kappa Fc region to avoid Fab arm exchange in vivo and ensuing loss of targeting was selected. Additionally, this avoids immune effector functions of IgG1 mAbs (ADCC, CDC), which would worsen endothelial injury. […]

[3] = test system: LPS-activated neutrophils; assay: ex vivo survival of LPS-activated neutrophils; format: cell-based, rat; settings: vs control non-treated activated neutrophils, P<0.0001; listed as 6g8
From the text: FIGS. 2A-2B depict DEspR expression on rat activated neutrophils and anti-DEspR inhibition of activated neutrophil survival. FIG. 2A) FACS analysis of CD11b activated neutrophils that are DEspR+(bold oval), and DEspR[−] (bold circle). Quiescent neutrophils are DEspR[−] and CD11B[−] in Quadrant Q4. FIG. 2B depicts inhibition of the extended survival of activated neutrophils by two different anti-DEspR mAbs targeting two different epitopes on DEspR.
DEspR is expressed on activated human neutrophils (FIG. 1A) and in neutrophils undergoing NETosis (FIG. 1C-D), in contrast to isotype control (FIG. 1B). Anti-DEspR mAb detects DEspR expression on rat LPS-activated neutrophils (FIG. 2A). […] Majority of CD11b activated neutrophils are DEspR+(Red bold circle) in contrast to CD11b+ but DEspR(−) (yellow circle) activated neutrophils (FIG. 2A).
Briefly, this anti-DEspR approach is supported by experimental data as outlined below: • 1. Validation of DEspR as target. DEspR is expressed on activated human neutrophils (FIG. 1A,1C,1D). Anti-DEspR immunostaining specificity is shown by no signal in isotype control neutrophils (FIG. 1B). Most human neutrophils undergoing NETosis are DEspR+ (FIG. 1C-1D). NETs (neutrophil extracellular traps) are associated with organ microthrombi in MOF and directly induce endothelial and epithelial cell death,^56 all of which are pathogenic events in ARDS. • 2. […]

[4] = biological target: T1, DEspR on intact human cells; assay: hu6g8 binding to DEspR on intact human cells; settings: done in triplicate
From the text: as §1
Described herein is the development, characterization, and validation of a fully humanized anti-DEspR mAb with a S228P hinge-stabilized IgG4/kappa FC region, designated herein as hu-6g8 or […]. The hu-6g8 was designed for high binding affinity to DEspR+ human cells and inhibition of activated neutrophil survival. hu-6g8 is reactive in all species, having identical epitopes in human, primates and rodents, which facilitates preclinical and clinical studies using the therapeutic lead. […] (FIG. 6). Through recombinant DNA technology, hu-6g8 was designed with optimal biophysical properties via: a) avoidance of T-cell epitopes for low immunogenicity—‘deimmunized’, b) optimization of heavy and light chain interactions for stability of variable domains, and c) exclusion of destabilizing post-translational modification sites [deamidation, oxidation, acid-lability, inappropriate N-glycosylation, isomerization and pyroglutamate formation].
Described herein are the advantages of anti-DEspR mAb targeted AECs. DEspR, the dual endothelin1/signal peptide receptor,^9 is a validated target on human activated neutrophils and NETs. […]

Molecule | Ascites volume [1] | Tumor weight (g) Greater Omentum [1] | Ascites ([1]; GEM 100 mg/kg/dose iv×2, hu-6g8 1 mg/kg/dose iv×1/week×2) | progression to hemorrhagic encephalopathy ([2]; single dose 1 mg/kg/dose iv after LPS) | murine IgG levels in brain (ELISA of brain membrane proteins) ([2]; treated rat brains, target engagement) | neutrophil myeloperoxidase (MPO) levels in the brain (ELISA) ([2]; vs non-treated LPS brains) | rat albumin levels in the brain (ELISA), brain edema ([2]; vs non-treated LPS brains) | IC50 (activated neutrophils; listed as mu-6g8) | IC50 (activated neutrophils) | IC50, inhibition of activated neutrophil survival (activated neutrophils; maximum dose used in the dose-response survival assay) | survival of activated neutrophils ex vivo [3] | EC50 [4]
Nc1ccn([C@@H]2O[C@H](CO)[C@@H](O)C2(F)F)c(=O)n1 [GEM, gemcitabine] | 1.5 mls | 1.6351 g | Bloody |  |  |  |  |  |  |  |  | 
6g8-mumab: murine precursor anti-DEspR antibody, pan-species reactive anti-Human/Rat/Monkey DEspR mAb (antibody, V domains shown) VH: GSEVQLQESGGGLVQPGGSLKLSCAASGFDFSRYWMSWVRQAPGKGLEWIGEINPDSSTINYTPSLKDKFIISRDTAKKTLYLQMSKVRSEDTALYYCARHGRGMDYWSQGTSVTVSSAKTTPPSVYGGGGS VL: GGGGSDIVLTQTNQIMSASVGDRVSVTCKASQNVDSNVAWYQQKPGHSPKALIYSASYRYSRVPDRITGSGSGTDFTLTITNVQSKDLADYFCQQYHSYPLLAFGAGTKLELKRADAAPTVSLE |  |  |  | attenuated the progression to life-threatening hemorrhagic encephalopathy | greater brain levels than anti-DEspR 10a3 | decreased myeloperoxidase levels | decreased albumin levels | > 198 nM | > 200 nM | > 30 µg/mL | decreased their survival | 178 nM
